Measured values: the domain aggregation screens of Martell et al. (2025)

Assay: soluble fraction after stress (log2 fold change); higher = more stays soluble; pooled small domains, quantitative proteomics
Conditions: stress: pH 4
Outline: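 After pH 4 stress, pooled custom libraries of small protein domains were quantified with high-throughput quantitative proteomics. Aggregation propensity is taken from the fold change in each domain's soluble amount following the acid stress. The scale is log2, where higher values mean more stayed soluble.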

Row | Sequence | soluble fraction (log2)
1 | HMRGPVRLDLPVSGLSRSSGPALAKILQAVPGVHKAHVNVRSGKATLEYDPARAKVTDFVEVIRSAGFGT | -0.072
2 | HMLDDESLHFFYKKDGWEYWMKTTTENNYPIQLRKKIGDEKVQEYWNGDKEKKKIGASYFGV | -0.6
3 | HMGDERDRLLLARGKRIYQELIGSDRENVAAALREFEAVLAVNNRRAIHVMRQRLAELFGVYEEFLNEEFL | -1.29
4 | HMTTAASIGRLVRDARKQRGLTQHELASLLSTSQSAIHRIESGNQNLSLEMINRIAQALESPLIVPGG | -0.343
5 | HMNIGELINKKRTELGLTLEEVGNAVGVSKSTVKKWEDGFISNMRRDKISKLAKVLEMNPVSLITGE | -0.0212
6 | HMPIMDSDDKYEALGIPQEWIAVVKKAGYQTVEALKAVENPNKLHQELSVMNKKEKLGLAGLTPEMVKAWL | -0.301
7 | HMGRYVIQIASFSSKNNAIEAADKLGGFVVQSGRFYRVRTGPFATRGEADAALASARRVGYRDAFIDTS | -0.233
8 | HMKQVEVPRLVGLTLREAQAVLGQVGLRIGLISRAALLASPREQIVEQIPVAGERNIATPYVNLLVNVP | -0.324
9 | HMGNEEEEAIREAEEAIERVLEYGEPQELNPQNGFIRRLQHQLAEKSHLSSESVGVEPYRRVRISK | -0.00812
10 | HMEEKNNIIVSYIEDKISELEKASMYVPNENKEKLIMAFKNRNEDIDVIKTRIDTIFNNSVAAYKENME | -1.32
11 | HMIPDPEKVMFDGGIRLLTQAGITEGKARSILGKWKRDHETERIIAALGAAQREGAIEPVSFIERVLRN | -0.475
12 | HMTPEPVTMYITSLTEFRSEPNTEAGIIKLLDAYEEVEMIESRGEWSKISYGDQIGYILSEFLTAENRT | -1.78
13 | HMSKTDYKILYSDLNREDAKQLSLLLEDKKIPYQTSEDGKTIKIPEGMVNRFRMEVATMGVNF | -0.014
14 | HMDYGSLQRAIENQLEVRNYQKPKKFLTKIIQLMETIMVRHGVMVVGLTGTGKTTVIETLSRSMEQ | -0.529
15 | HMNDYNLTDREKEVLTFLFQGLEYKEIGMKMSVSPNTIRNHISNIYKKLHVTSKTQAIRVFLNN | -0.0426
16 | HMQDSIYYAQYRINIRNMPSSEGMVISRASVGEALEVLDWQEQWSKVRKQSGVEGYVASRLLTK | -0.64
17 | HMLKLEEIQPNATVRGILPDALITVVNVKWFGSEALELTYKDTSGRVANQLLFRDDQPRLEIVE | -1.12
18 | HMNKIDVVEVDMSKPYEDMTVTELQNVILGKLASNGPVTDQMKKDVAENIYHDSLVNWAKSF | -0.303
19 | HMSWRWVPVSGAYTTSALEAAGLTRAFDDQAAAEEWLGLFFDDLLREGVGEVSLYEEDRLVYGPMSL | -2.33

Row | Sequence | soluble fraction (log2)
20 | HMNGADPYEQLGVTRDASDDELKAAHRKLSRENHPDTLMAKGMPPEFIEQANDKMARINAAWDQIRKERGI | 0.124
21 | HMPRKLDDQLQEQIRYLKSNYPRMSAAGIFRQLQDNGSIKHGDVSESTINRYVNLLSIEMKTTT | 0.149
22 | HMKEKIIKEPYDLFTTDKIGQALEVQALLARQGIKVQRRVDGTKSTLFLENYTQSEKDQALLAVVRSGIV | 0.167
23 | HMEWNREQLEQIVLQHIRKHGFITRATYTELTGRLKNSALADLKSFAAEGIIKRVGRGNQMHFIVPL | 0.221
24 | HMTTQVPYTAKLININGGSVVNFRKEPGMNTTIIRTYPVGTEVTVLETGVNWSKVEIDGVTGYVSSYFL | -0.00711
25 | HMVGIVQKTFEPTGIAAEELMKTLKSDKSLDFGNVQILATPKSSTSRQVVVVSGRANDVDRVMMVLSNLDS | 0.015
26 | HMAGVSVTSLTTFWRLAADTPDTPSGADDPSGWSRTEPSIPDGYEGKLYRTIRTIMSDGTATWTSPD | 0.0531
27 | HMAGISQGLAENVERRITTLLREQKEVPVHDIDFPGISRETVGQVLHQMVQEEKLLLDDGMISLSPNQ | -0.229
28 | HMSAGPQGRTPREDELTVGTKVYVSRVGASGVVSSDVSRGKVVVQVGALRLTAAVSELLLLDG | -0.472
29 | HMDIVQLSEKINVMKMEIPAQAIGKTVLEVNFRARFDLNIIAIENGGKLVEVIKPDYVFREGDILFLSGS | -1.31
30 | HMSSHSAEAVRHRIKSMIDHEARDGDVLSDDRIVELLNQAGIDIARRTVAKYREALRIPSSVERKRRLKA | 0.0173
31 | HMRFQGKISDWNDEKGYGFVEPNGGGTRAFVHIKSFTDLPRRPINGDIIIYETTTDEKNRVQANNISFTR | -0.163
32 | HMVDGAHKQQAAVQALTPALKVLAAAPEGKKGQAIQALRAVLKQHGRWLDDATAQQVHEQLLAAGDAQGWQ | 0.331
33 | HMSSPVIQINTRNDGWIIKLLQPAVEKDVLEGYLADVGLKLQSQMMEKILAAPAGTEFHIKRGSNILTE | -0.133
34 | HMGIPVSIGQLDFNQARGNLALQVRASDFAALEQLRQRLGQTGESVQLGSASRDGDAVSARVVIGGQ | -0.0672
35 | HMGSFFSKATAPVRTTGGDGLYKHGSIWFNTSTGRLFVYIPDDRYTGLLDTHNGDIGYWVDVS | -1.22
36 | HMGQMGHAVVAKTDLAVGTPLTRDLVAVREVPVEWLHSSAITPEQFERAAGAVLAQPARGGEPLVWSQLEE | -0.201
37 | HMGNFFDSAILALKNAIQENYGGNVSQAARSLGISVPTLHTWIKGDRKPSLEKLSPILDALNAKIVL | -0.276
38 | HMAPKRIVLRFGKDISDKPIIYYLVKDYDLVINILKANVNPNKEGTLVLELSGENYDKGIEFLISQGVTVQ | -1.33
